This is an account of results in the supplement of paper PMC12042874.

This data set in a line: amyloid nucleation score (Sup35N fusion, yeast selection) (log enrichment); library NNK1; higher = more nucleation; inactive = no reads after selection. A digest of the protocol: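 Libraries of peptides of 20 random codons fused to Sup35N were expressed in psi-negative yeast and induced 24 hours with 100 μM copper sulfate. Selection was 7 days at 30°C on medium lacking adenine and uracil, and plasmid inserts were Illumina-sequenced before and after selection. Nucleation score is the DiMSum log enrichment of output over input reads, centred on the mode score of non-aggregating sequences, and sequences with under 100 input reads were left out.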

± gives the uncertainty stated by the source.

As to ANYFQSICQFDVDRIKLNSA, the amyloid nucleation score result was “inactive”.

PSYHGYLGLSNPVRYRMCV came in with an amyloid nucleation score of 0.197 ± 0.28.

Regarding KRRYYCFGAMVY, the amyloid nucleation score was 0.203 ± 0.38.

Substance IYKVLYYEVNKFWTTIVSSR showed an amyloid nucleation score of -0.651 ± 0.29.

CSDKKLGEWSASWNCNRDRM registered an amyloid nucleation score of -0.171 ± 1.7.

As to GQLWGEVVIVYCKFAMEWAY, the amyloid nucleation score came to 0.898 ± 0.27.

Consider FISHGRIVHGEDGAVLFVSG, for which the amyloid nucleation score was 0.277 ± 1.4.

GFGPDQFITESDSFTSAFVS showed an amyloid nucleation score of 0.125 ± 0.55.

In turn, TLQLN showed an amyloid nucleation score of -0.59 ± 0.65.

As to PLCPSGRNYVS, the amyloid nucleation score is -0.159 ± 0.25.

RVGYIYHYYLDNQG displayed an amyloid nucleation score of -0.175 ± 0.38.

In turn, SFPVQQIYF returned an amyloid nucleation score of 0.971 ± 0.49.

In turn, SRYWSLYGGIIVVSRSRTGR yielded an amyloid nucleation score of 0.45 ± 0.32.

RCLVFTLKRV: the amyloid nucleation score turned out to be 0.358 ± 0.61.

On to LYICPHYDYWLCEQYMHWSP, for which the amyloid nucleation score is 0.69 ± 0.35.

Substance CYSGCYRLCRVIVASCRCRG returned an amyloid nucleation score of 0.015 ± 0.71.

For the substance IWMFISAVASFNITRSWCYL, the amyloid nucleation score is 2.02 ± 0.13.

The substance LTDPLCQTPFFYLFCRDAQE showed an amyloid nucleation score of -0.142 ± 0.4.

Substance YIVTTLQYDRSLASKVDEGT displayed an amyloid nucleation score of -0.489 ± 0.56.

Substance TTVANTSAVFCEAVCKGMQK displayed an amyloid nucleation score of 0.078 ± 0.99.

In turn, FEERFMFYTNIDNLLYPLSA registered an amyloid nucleation score of 0.848 ± 0.42.

REPIYFSVSMIWGTLASPVT: the amyloid nucleation score was -0.447 ± 0.98.

With RFRNGLNLFRMSNMFSNLKH, the amyloid nucleation score is -0.129 ± 1.1.

MAGYL: the amyloid nucleation score is -0.078 ± 0.48.

For DRCSY, the amyloid nucleation score was -0.431 ± 0.39.

VPNEYGNSEVRLLDLLGDLE displayed an amyloid nucleation score of -0.435 ± 0.36.

With WNCLCSGLTC, the amyloid nucleation score came to 6.806 ± 0.055.

The substance RISYTDCMVEQLHPNQLWQN returned an amyloid nucleation score of -0.069 ± 0.52.

Consider LMVFAIRDLNFRHTILQPVP, for which the amyloid nucleation score is -0.081 ± 0.42.

In turn, MSVNSRNMNKYLFWNKL had an amyloid nucleation score of -0.029 ± 0.3.

Take SEEYWVLDWIEVGLKGSLRM: the amyloid nucleation score was -0.105 ± 0.55.

RPTGLDILS yielded an amyloid nucleation score of 3.56 ± 0.1.

NIGNVMRSCSKVYSLSLKQL gave an amyloid nucleation score of 0.585 ± 0.31.

As to SVRVPEHGRRWVSKGVG, the amyloid nucleation score was -0.785 ± 1.1.

The substance RILCHLTNRWFEFDEVLVGV gave an amyloid nucleation score of 0.835 ± 0.48.

On to SGGPGDAGRLRQ, for which the amyloid nucleation score was -0.005 ± 0.91.

SLRYSLCRL returned an amyloid nucleation score of 0.328 ± 0.24.

Consider QCHVVDFRRKYLELRSSLRY, for which the amyloid nucleation score result was “inactive”.

SSVARIIWKFCRFSTVGVCF yielded an amyloid nucleation score of 0.858 ± 0.59.

On to MLTNVSNICYWNDVVGDSLA, for which the amyloid nucleation score was determined as 0.838 ± 0.28.

With NSDKLPRCHLSLSYV, the amyloid nucleation score worked out at 0.994 ± 0.28.

As to LSTAWFGQNAHRCLGLVTLA, the amyloid nucleation score is -0.005 ± 0.59.

Turning to GSCFTVWMIGPGRRTLLQVL, the amyloid nucleation score was -0.079 ± 0.54.

NSRMRFILGTFY: the amyloid nucleation score turned out to be 1.63 ± 0.41.

As to YFAHGSWRLSCFLVYWLMRP, the amyloid nucleation score entry was “inactive”.

YCQVYGSVWNFKRYYLATWS yielded an amyloid nucleation score of -0.128 ± 0.55.

As for LDGGIIRRILVIVKCWGRCC, the amyloid nucleation score is 0.108 ± 0.2.

The substance LTDLLMFIVPWDNAQRLVCF had an amyloid nucleation score of 0.518 ± 0.89.

NMTPFGYIHFTL: the amyloid nucleation score was determined as 0.644 ± 1.

Substance ETYGCFRYWISSLPVVEVSF came in with an amyloid nucleation score of -0.368 ± 0.35.

The substance CPNIEKPSLLST showed an amyloid nucleation score of -2.01 ± 2.4.

Substance RGITNCVQCPVIPWFLRYYG registered an amyloid nucleation score of -0.401 ± 0.31.

In turn, CCHAYRFGWNASVLRCGICL had an amyloid nucleation score of -0.444 ± 1.9.

LWSLVCSELCWDVLFNALPG came in with an amyloid nucleation score of -1.03 ± 0.71.

In turn, NSNMGCSVI showed an amyloid nucleation score of -0.596 ± 1.

SHAFRITS: the amyloid nucleation score is 0.619 ± 0.85.

Take SRFKPWGGSFVGYCVLYGRL: the amyloid nucleation score was -1.01 ± 0.71.

Turning to LLRCPYLNFGASMYLIRFCS, the amyloid nucleation score turned out to be 0.404 ± 0.53.

For the substance KVFQQGC, the amyloid nucleation score is -0.165 ± 1.6.

In turn, ILEFDDKKVLNLVEGKLLGA displayed an amyloid nucleation score of -0.383 ± 1.7.

In turn, MGLGVRVEKSSCACG had an amyloid nucleation score of 0.841 ± 0.37.

Take AIDRRLYMGYSSWNEQDCEV: the amyloid nucleation score entry is “inactive”.

As to FMFDNYIGRSGSGGCSGDGR, the amyloid nucleation score was -0.417 ± 1.2.

For LVGRSFSCEPRLYTFCEFCG, the amyloid nucleation score came to 2.61 ± 0.18.

RLWSRPSS registered an amyloid nucleation score of 1.14 ± 0.79.

For HCHSPATKPALTLMMY, the amyloid nucleation score is -0.738 ± 0.93.

LNISQRRIYFWSYWLHHITY had an amyloid nucleation score of -0.282 ± 0.6.

Take TLVSAVSCCLNAC: the amyloid nucleation score is -0.269 ± 0.26.

In the case of VTMVRYCALIQSYGGDGELV, the amyloid nucleation score worked out at 0.26 ± 0.45.

Substance PQKHSFAWHRMVATLALSYR returned an amyloid nucleation score of 1.17 ± 0.93.

SECYFSVWFANTALQNRV registered an amyloid nucleation score of 0.034 ± 0.4.

In the case of ILYNLGTWFRLC, the amyloid nucleation score is -0.496 ± 0.61.

Substance KLSNFKVHYCYLTSHLMLET displayed an amyloid nucleation score of 0.053 ± 0.43.

In turn, LIFNQLWWRKSMCLQVRPGQ displayed an amyloid nucleation score of -1.25 ± 0.92.

On to VKYWFVVGVVLSWFTER, for which the amyloid nucleation score is -0.304 ± 0.24.

For RGILNRVTLILDLRVHSSSD, the amyloid nucleation score was found to be 0.504 ± 0.32.

FIRSVKRGARWSGGNFFIEG: the amyloid nucleation score entry was “inactive”.

The substance RILRDQTWIPSMATDSILVC had an amyloid nucleation score of -1.23 ± 0.79.

With PYKTWRYSSRIFYWAALPMV, the amyloid nucleation score was -0.842 ± 1.7.

Substance SQYDWLKLFSNVY gave an amyloid nucleation score of -0.175 ± 0.21.

For the substance PVARTPHWVLAVRWHALIWG, the amyloid nucleation score turned out to be 1.4 ± 0.29.

Turning to IKYFVLAWTSDPLTYVTVTS, the amyloid nucleation score turned out to be 0.953 ± 0.46.

For QHTFQAMISKSNVSEMSPGT, the amyloid nucleation score was -0.174 ± 0.59.

YELRFMRVEQGSQYREVS: the amyloid nucleation score is -0.159 ± 0.37.

As to YSTRPKVPFVRKVFIIGL, the amyloid nucleation score was found to be 0.174 ± 0.43.

In turn, WSCKVMRVYRP yielded an amyloid nucleation score of 0.295 ± 0.4.

On to AYAVVGAM, for which the amyloid nucleation score is 0.604 ± 0.69.

WSMMCKWMNVERFIYMLKSC registered an amyloid nucleation score of 0.394 ± 1.1.

On to HSLLVMQDVCPE, for which the amyloid nucleation score came to 0.69 ± 0.56.

Take NWVRLFQFILTRYSAFAHFR: the amyloid nucleation score was -0.264 ± 0.34.

In the case of GFGSELRYYYMSRGMYRIRP, the amyloid nucleation score is 0.089 ± 0.88.

In turn, CVKRLLPVYWWGESG showed an amyloid nucleation score of 0.123 ± 0.91.

For the substance VYRCCLKAVCFIDVVTGLWG, the amyloid nucleation score was -0.173 ± 0.71.

As for YSAVISHDVGLFVYLTETET, the amyloid nucleation score was -0.363 ± 0.56.

YCHCRFFDNLGCECLLR displayed an amyloid nucleation score of -0.368 ± 1.9.

In the case of IPTLRSPVNRWPRITMKVWL, the amyloid nucleation score was -0.161 ± 0.62.

In turn, VKKGILLSVLDASFRTSVYE showed an amyloid nucleation score of -0.424 ± 0.88.

As for VPTVCYFSNQVR, the amyloid nucleation score is -0.434 ± 0.33.

Consider SRVFLCCAMCLRRNSGYGR, for which the amyloid nucleation score was -0.362 ± 0.4.

CPGFFILVQCIVYMDTDCGF: the amyloid nucleation score came to 3.81 ± 0.095.

With VGCVWAQEDRVPT, the amyloid nucleation score is -0.715 ± 0.83.

Turning to DTNIHRVEFLISFFGRELSQ, the amyloid nucleation score result is “inactive”.

For VLFHHSSQIRVI, the amyloid nucleation score result was “inactive”.

KQRSN registered an amyloid nucleation score of 0.746 ± 0.7.

In the case of KWSWGGPRDMIFKDTLAGAR, the amyloid nucleation score entry was “inactive”.

YVYSYLGGARGCVFKEKDPP displayed an amyloid nucleation score of 0.586 ± 0.47.

As for KYKRSYTLDHVFYMSSPGVR, the amyloid nucleation score was 0.824 ± 0.73.

In turn, GGYVWVTTSGPVFIQVMNMW registered an amyloid nucleation score of 8.136 ± 0.06.

GRAEAKLY: the amyloid nucleation score is -0.118 ± 0.31.

Take TYRFGCTLPLLRMCFIP: the amyloid nucleation score was 0.435 ± 0.71.

In turn, LWTLVQTASSTWALLTGTTN registered an amyloid nucleation score of -0.066 ± 0.65.

In the case of LYSLVGCWTLCLNVSCFEWL, the amyloid nucleation score was 4.93 ± 0.064.

Consider IGMVSVSC, for which the amyloid nucleation score came out at 0.037 ± 1.2.

The substance WASMIHVEFYSNYFL gave an amyloid nucleation score of -0.017 ± 0.72.

DRMLHKAI yielded an amyloid nucleation score of -0.624 ± 1.5.

Consider ECGLGRSKEQSNGSWMCLHR, for which the amyloid nucleation score is -0.464 ± 0.54.

In turn, VFLWDSHV gave an amyloid nucleation score of -0.505 ± 0.39.

As to KYLPPQVSSGWI, the amyloid nucleation score was determined as 1.01 ± 0.37.

Regarding PCTGLRHGLHEFMSRYPDRD, the amyloid nucleation score was 0.215 ± 0.97.

Consider NTLYVGWCMGFV, for which the amyloid nucleation score is -0.354 ± 0.3.

With TGMWPFNRRCITIRTVSRNL, the amyloid nucleation score was 0.467 ± 0.93.

Consider FLSSCSMFMGRPWFSCYRVR, for which the amyloid nucleation score is -1.02 ± 2.4.

For AVVHSRYRVSVCGDQDLSPL, the amyloid nucleation score was -0.086 ± 0.41.

Turning to FMPRSLHLTTWLQSNAFNNA, the amyloid nucleation score was 3.22 ± 0.068.

For the substance NDTQLRISACYALRDNGEWV, the amyloid nucleation score worked out at 1.12 ± 0.66.

VLGMAEATADFSPIWVSKCS had an amyloid nucleation score of 0.455 ± 1.4.

For the substance FFKGGVNGIFINNGSTFG, the amyloid nucleation score was 4.91 ± 0.067.

As for GLVGTRICSWIDFRSV, the amyloid nucleation score was -0.3 ± 1.5.

PKMGSGHSWTRGQYICHS had an amyloid nucleation score of -0.301 ± 1.1.

Turning to CMDRSLMVNNTRPYGCLLEY, the amyloid nucleation score was determined as 6 ± 0.061.

In turn, LHESVFSWSSKLSLRHGYLR had an amyloid nucleation score of 0.159 ± 0.7.

Turning to HCTSQ, the amyloid nucleation score is 1.71 ± 0.13.

CHVSLYRMDIGLQYRTGRIW displayed an amyloid nucleation score of 0.645 ± 0.52.

Take LLNAAHIEGT: the amyloid nucleation score amounted to 0.064 ± 0.59.

As to GISFFGGLQASFLLPLASLL, the amyloid nucleation score turned out to be 0.413 ± 1.1.

Substance ENFLTNYFYSVVTVI showed an amyloid nucleation score of -1.51 ± 1.2.

For DSWYRLLLARACNISHVRGR, the amyloid nucleation score is -0.527 ± 0.48.

GSYECV came in with an amyloid nucleation score of 0.734 ± 1.2.

As to FQIRSRISIDCVMVNRDELS, the amyloid nucleation score was 1.41 ± 0.18.
